Reference: patent US20230312689A1

Biological target: two kinds of spike viruses (Wuhan type S, European type SD614G)
Assay: cell-based or functional assay

B1: CTMA9-105 (antibody, V domains shown)
VH: EVQLVESGGGLIQPGGSLRLSCAASGITVSSNYMSWVRQAPGKGLEWVSLIYSGGSTYYADSVKGRFTISRDNSKNTLYLQMNSLRAEDTAVYYCARDLEEAGGMDVWGQGTTVTVSS
VL: DIVMTQSPGTLSLSPGERATLSCRASQSVPSIYLAWYQQRPGQAPRLLIYGASSRATGIPDRFSGSGSGTDFTLTISRLEPEDFAVYYCQQYGSSPGTFGQGTKVEIK
  IC50, pseudovirus neutralization test using the purified antibody: 2 to 6 ng/mL
